The source of these data is a protein production outcome set (Wang et al. 2014).

This series can be described thus: label from the status in PepcDB records.

On to “MGRLHCTEDPVPEAVGGDMQQLNQLGAQQFSALTEVLFHFLTEQKEVERFLAQLSEFATTNQISLGSLRSIVKSLLLVPNGALKKSLTAKQVQADFITLGLSEEKATYFSEKWKQNTPTLARWAIGQTLMINQLIDMEWKFGVTSGSSELEKVGSIFLQLKLVVKKGNQTKNVYIELTLPQFYSFLHEMERVRTSMECFC”, for which the protein production result was “failed”. For “MGRSQATAESYRDSLTIFKNYLVGELGKSISTFQFSDCTKECIYNFREYLLANGSQPSTVNVRVAAIRAYLNYASDMDISVQSVALAILEHHHHHH”, the protein production result is “failed”. For “MGSAERFQRLLGDRYELRGVLGRGGMAEVRDGWDTRLARPVAIKLLYPALAADADLRARFEREARAAAALTHPHVVAVHDCGEHAGTPYIVMERLSGATLADEIAAGPLPQERVAELLDQILSALIAAHAAGIVHRDIKPGNILIGHTGQAKLADFGIAKTDGVPHTQAGQILGTMAYLSPQRVTGQPAGFADDLYAVGVVGYEALTGRRPFDRDNPAAMVRAILDDVPVPIASVRSDVAPGLIHVIDMAMAREVAFRYPDAATMRAALTGAEPPTQRVGRRQTKVLAAPLPPIPPPPVLPSPRHWRTRLILAVLGIVSTLILVLVLALARGSSGLTSPTSTPTATTVPPATSAVVPPPVPSTPVPAAVPEEPRGPGRGPGPGPGPGKGKGHEKGHGPKGPKGPPHP”, the protein production entry was “failed”.

In the case of “MGSDISQFSASPAARQHTWTLAAYRYMARKRLGGKTAIDLKSVATKSWDIAPGEATVSPPAIFLPGQLDRVTGWEGKRFYPYVHPAQTMAGGIHTLQGPTRGYLIKDVWLVDGALYKGKASHWLSQKPSTFPTILIDHEIDRAAIYCTLNGNAWFGTWLMEDCPTYALACNEGIPVTTAPSARYPLFTQAPAYEDWLDMKPLRLRSAFFRELVLFDDQSNNRSRHARYRAMGDKLLSHVTHTQHPGVFLLRGGDGDLRLLRNELELAEHLRTTRGFRIVNPLKSDVPSIVAACAGAKVVIGVEGSQLVHGVNVLQAGGCLLTLQPPNRFVSYYKYLTDRDHQHFGFVVGLPEGDGFRIDIDEVERTLDLFPR”, the protein production result was “failed”.

Consider “MGSGAGNFLKVLLRNFDVLAGPVVSLVYPLYASVQAIETQSHADDKQWLTYWVLYSLLTLIELTFAKLIEWLPIWSYMKLILTCWLVIPYFSGAAYVYEHFVRPVFVNPRSINIWYVPKKMDIFRKPDDVLTAAEKYIAENGPDAFEKILSRADKSKRYNKHEYESYETMYGEGYQY”, for which the protein production result is listed as “failed”.

For “MGSGGVVHCRCAKCFCYPTKRRIRRRPRNLTILSLPEDVLFHILKWLSVEDILAVRAVHSQLKDLVDNHASVWACASFQELWPSPGNLKLFERAAEKGNFEAAVKLGIAYLYNEGLSVSDEARAEVNGLKASRFFSLAERLNVGAAPFIWLFIRPPWSVSGSCCKAVVHESLRAECQLQRTHKASILHCLGRVLSLFEDEEKQQQAHDLFEEAAHQGCLTSSYLLWESDRRTDVSDPGRCLHSFRKLRDYAAKGCWEAQLSLAKACANANQLGLEVRASSEIVCQLFQASQAVSKQQVFSVQKGLNDTMRYILIDWLVEVATMKDFTSLCLHLTVECVDRYLRRRLVPRYRLQLLGIACMVICTRFISKEILTIREAVWLTDNTYKYEDLVRMMGEIVSALEGKIRVPTVVDYKEVLLTLVPVELRTQHLCSFLCELSLLHTSLSAYAPARLAAAALLLARLTHGQTQPWTTQLWDLTGFSYEDLIPCVLSLHKKCFHDDAPKDYRQVSLTAVKQRFEDKRYGEISQEEVLSYSQLCAALGVTQDSPDPPTFLSTGEIHAFLSSPSGRRTKRKRENSLQEDRGSFVTTPTAELSSQEETLLGSFLDWSLDCCSGYEGDQESEGEKEGDVTAPSGILDVTVVYLNPEQHCCQESSDEEACPEDKGPQDPQALALDTQIPATPGPKPLVRTSREPGKDVTTSGYSSVSTASPTSSVDGGLGALPQPTSVLSLDSDSHTQPCHHQARKSCLQCRPPSPPESSVPQQQVKRINLCIHSEEEDMNLGLVRL”, the protein production entry is given as “failed”.

“MGSGWGPLEPWDRLAQPRPATGRLAAPPHCPPALPLHSAAPGSRTGTGAMERTAGKELALAPLQDWGEETEDGAVYSVSLRRQRSQRSTPEGSGDGQTPIPAMDTFLQYRTSKVRALRAARLERLVHELVSGDREQDPGFVPAFLATHRAFVPTARVLGFLLPPPPPPPPPPAGVDSKRTEGQDLNFSKNLRAVVSVLGSWLRDHPQDFRDPPDHQNLGDVRIFLGWAAPGGAEVREAEKLLEDFLKEAKEEQTEGEQRLAWAGPPWAAQSPRSEFAEDYSEEEGLRSEGPELLDFSVDEVAEQLTLMDVELFLRVRSCECLGSMWSQRDRPGAAGISPTVRATVAQFNAVTGCVLGSVLAAPGLAASQRAQRIEKWIRIAQRCRELRNFSSLRAILSALQSNPIYRLKRSWGAVSREPLSVFRKLSQIFSDEDNHLSSRAILSQEETTEGPQGDDCSPGSLPSKLPPGPVPYLGTFLTDLVMLDTALPDMLKGNLINFEKRRKEWEILARIQQLQHRCQHYSLSPRPPILAALRAQRQLSEEQSYRVSRVIEPPAASCPSSPRIRRRISLTKRLSAKLSREKNQSPGGSPGDPPSPTSSVSPGSPPASPRSQDPPPGSPPASPGPQSPSTKLSLSMEPPGPWPMTLTPSSSRTPLLGQQTSEARVIRVSINNNHGNLYRSILLTCQDKAPSVVQRALEKHNVPQPWARDYQLLQVLPGDRELLIPDSANVFYAMNPAAPGDFLLRRKEGTGHTPSASPS”: the protein production result was “failed”. As for “MGSIEEVLLEERLIGYLDPGAEKVLARINRPSKIVSTSSCTGRITLIEGEAHWLRNGARVAYKTHHPISRSEVERVLRRGFTNLWLKVTGPILHLRVEGWQCAKSLLEAARRNGFKHSGVISIAEDSRLVIEIMSSQSMSVPLVMEGARIVGDDALDMLIEKANTILVESRIGLDTFSREVEELVECF”, the entry is “not failed”. Turning to “MGSKPSSLADEVAIIVEQVDKVMGMVFWCPLYWESIELLAKDEVSRAIFYGLTEGCKLDYLKYKTKASMVPEMTRFYS”, the protein production result was “not failed”.

As for “MGSKTSPKWISAILRWPLLWHAARLALVSAYILGGFTKLLDLAGAAAEQEHFGLYPGWLWASAAILVELFGSLLVVINRWVWLGAGGLGILTFVAMLTANAFWTMGGHERFMATNAFFEHLGLIAGLVIVTILSEEAVTRPKSGAGSQAIQGVSR”, the protein production result is “failed”. Turning to “MGSLRLLADIQGEDLESLYGYAKQLFDGGEIAAARNVYQLLSTLDHWNFDYLLALGLCHQRLGAHNEAVVCFGRAGLIKVDDPRAAFYAGISYRLDGNAEYASKAFKAAINWCGEQIDYQAIKASAVDMLALQQEEVPLEHHHHHH”, the protein production entry was “failed”.

As to “MGSSHHHHHHSSGENLYFQGHMDVLASGEKSRMLFERTKELFPGGVNSPVRAAVKPYPFYVKRGEGAYLYTVDGARIVDLVLAYGPLILGHKHPRVLEAVEEALARGWLYGAPGEAEVLLAEKILGYVKRGGMIRFVNSGTEATMTAIRLARGYTGRDLILKFDGCYHGSHDAVLVAAGSAAAHYGVPTSAGVPEAVARLTLVTPYNDVEALERVFAEYGDRIAGVIVEPVIANAGVIPPRREFLAALQRLSRESGALLILDEVVTGFRLGLEGAQGYFNIEGDIIVLGKIIGGGFPVGAVAGSREVMSLLTPQGKVFNAGTFNAHPITMAAGLATLKALEEEPVYSVSREAAKALEEAASEVLDRTGLPYTINRVESMMQLFIGVEEVSNAAQARKADKKFYVKLHEEMLRRGVFIAPSNLEAVFTGLPHQGEALEIAVEGLRSSLKTVLGS”, the protein production entry is “not failed”. On to “MGSSHHHHHHSSGLVPRGSHMLEGIIEEKALFVTCGATVPFPKLVSCVLSDEFCQELIQYGFVRLIIQFGRNYSSEFEHLVQERGGQRESQKIPIDQFGCGDTARQYVLMNGKLKVIGFDFSTKMQSIIRDYSDLVISHAGTGSILDSLRLNKPLIVCVNDSLMDNHQQQIADKFVELGYVWSCAPTETGLIAGLRASQTEKLKPFPVSHNPSFERLLVETIYS”, for which the protein production entry is “not failed”. For “MGSSHHHHHHSSGLVPRGSPQQLVERLQEEKRIEAQKRKERQEAHLYMQVQIVAEDQFCGHQGNDMYDEEKVKYTVFKVLKNSSLAEFVQSLSQTMGFPQDQIRLWPMQARSNGTKRPAMLDNEADGNKTMIELSDNENPWTIFLET”, the protein production entry is “not failed”. For “MGSSHHHHHHSSGRENLYFQGEPPPSVRREFPLKVRLSTGKDVRLSASLPDTVGQLKRQLHAQEGIEPSWQRWFFSGKLLTDRTRLQETKIQKDFVIQVIIN”, the protein production result was “not failed”. Consider “MGSSHHHHHHSSGRENLYFQGMLLHSVQTPRGEILNVSEQEARDVFGASEQAIADARKATILQTLRIERDERLRACDWTQVQDVVLTADQKATWAKYRQALRDLPETVTDLSQIVWPQLPV”, for which the protein production entry is on record as “not failed”. For “MGSSHHHHHHSSGRENLYFQGMNIGRLRDRITIQTLKQTRDITGEILETWEDGHTLWASVNMVSSKEAISSGAELAIGTVRIWIRYRKDINATSRIKVSTGPLAGRVLNIIGQPLPDAARTRLEILCREGAEK”, the protein production entry was “not failed”. For “MGSSHHHHHHSSGRENLYFQGSQESIQNKISQCKFSVCPERLQCPLEAIQCPITLEQPEKGIFVKNSDGSDVCTLFDAAAFSRLVGEGLPHPLTREPITASIIVKHEECIYDDTRGNFIIKGN” the value was “not failed”.

“MGSSHHHHHHSSGRENLYFQGSQRPVDRNPPRINLMPTGANRVAMRNRGNNEADAALQALAQNGINMEDLRAALEAYIVWLRPIPLDIANALEGVGITPRFDNPEEAKVDNPLMNLSSALKRRLDA”: the protein production entry is on record as “not failed”. For the sequence “MGSTQYWDLKSGVCTRIFGGHQGTITCMDLCKNRLVSGGRDCQVKVWDVDTGKCLKTFRHKDPILATRINDTYIVSSCERGLVKVWHIAMAQLVKTLSGHEGAVKCLFFDQWHLLSGSTDGLVMAWSMVGKYERCLMAFKHPKEVLDVSLLFLRVISACADGKIRIYNFFNGNCMKVIKANGRGDPVLSFFIQGNRMVVNTESNVLMFQFEHIKWQYAVEKTKQKKNKEKEEEKEENSLMEILSKCNIQVHSPRESVSSKQTVIQELLPGKPPKSRVLLKPAKFSSAVLIEELQSQGKSKSPRRDADDVEKAQKQGQLETPGKLPSHPKKKSWKIPMSPDQFLLTVSALQHARNSGEFAYPCRPQTEITDVWGPSISYPRKVLNFKGKSIQRAVDRLRLSNPPIDVKRTSIPLEIQKLQPNLKISLHSPRAQSTIPQPMIIRSRFSGSLKGGDQVTSSIERAVCSTGPLTSMQVIKPNRMLAPQVGTATLSLKKERPRIYTALDPFRVNAEFVLLTVKEEKEHQEAKMKEYQARESTGVVDPGKASKAAWIRKIKGLPIDNFTKQGKTAAPELGQNVFI”, the protein production result is recorded as “failed”. For “MGSVQVKAHADEQGRAVVRASIEIAAPPSVVFGVILDCGRAARMSPGVKRCRVVSRAADGSEVREHTVKWGFFLPALQSRSRLSLQPDREIRFTCIGGDIRACDGFWRLEPLDGGMRTRVTYDLWATAPYAAPAGLVSSLMRRTVPQSLAALRRECEGLEHHHHHH” the value was “failed”; for “MGTDKFNNIKIDKYENLINVLKTGDIFLCSGNYLVSKLIKKVSESMFSHTGIIVKWGEHTLIMESVEDDGVRIVPLEHYIKNYENSNNRYNGSLFIARHELLQNVNDDSEMIRNLIKVGFSLLNSGYDKNEIAQIVARIGLGIGRHEDNNEYICSEFVNECFKKIGVEFLTDSEGFIFPEHIAADHHVLPIAQIE”, “not failed”.
